± gives the uncertainty stated by the source.

This data set is described as follows: amyloid nucleation score (Sup35N fusion, yeast selection) (log enrichment); library NNK3; higher = more nucleation; inactive = no reads after selection. The method, boiled down: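 The nucleation score is the DiMSum log enrichment of output over input reads, centred on the mode score of non-aggregating sequences. Only sequences with 100 or more input reads were scored, using Illumina sequencing of input and output plasmid inserts. Psi-negative yeast expressing Sup35N fused to peptides of 20 random codons were induced 24 hours with 100 μM copper sulfate and grown 7 days at 30°C on medium lacking adenine and uracil.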
Turning to DVFSDSQVVENRV, the amyloid nucleation score result is “inactive”.
The same measure for DVLTVMSQLVVMKTL: “inactive”.
The entry for DVMRGIKYVRRVNAQLTGSS is “inactive”; for DVMRVWFTEYSMSTTVGMAV it is “inactive”.
The entry for DVMTKDQ is “inactive”.
In the case of DVNIRSSGDNTIAFKYYTMK, the amyloid nucleation score was determined as 0.14 ± 0.38.
The same measure for DVSLVGSVMRIELLEMCVSR: “inactive”; for DVSRVIA: “inactive”.
The entry for DWCVSSEMSVTNALQATKFA is “inactive”.
The same measure for DWEDCVV: “inactive”; for DWGTASSSTVGFEQSSDKVF: “inactive”; for DWIKFHVTDW: “inactive”.
With DWNRLFRVD, the amyloid nucleation score entry was “inactive”.
The same measure for DWNYNTLQLSSPVGAGLTKN: “inactive”; for DYALC: “inactive”.
The entry for DYALI is “inactive”; for DYATESFTVITLLGILLDRG it is “inactive”; for DYHLQLKMLRPW it is “inactive”.
The same measure for DYSIAVGYWSFHVN: “inactive”; for DYVNRCI: “inactive”.
For EAARTDLSILFISWMLLGKR, the amyloid nucleation score result is “inactive”.
The entry for EATPSSIQAQ is “inactive”.
The entry for ECADLWARLYHFF is “inactive”; for ECCGDLGAVWQVVRNCGKVL it is “inactive”; for ECCQSSSVITNFSSFVKGGA it is “inactive”.
The same measure for ECWKVGKGLRSE: “inactive”; for EDAFWYYVEWPYKWLQGGHS: “inactive”; for EDSMRYCH: “inactive”.
Take EEDKLFCGVMWQFG: the amyloid nucleation score result is “inactive”.
The same measure for EEFSGNLCDFRLQPRSCCEN: “inactive”; for EEPNG: “inactive”; for EFCIRRIM: “inactive”.
The same measure for EFFHNYVINMERYNCVLVRM: “inactive”; for EFGDFVDKASMLNIWDGIVG: “inactive”.
The entry for EFMKGFAWISMFNLRSVLNS is “inactive”.
Take EFMSSVGIYMEIDCTLGVCD: the amyloid nucleation score result is “inactive”.
The entry for EFVEAYFSNGLSRLPLTHGM is “inactive”; for EGETTEVLTLVVWRKVINNS it is “inactive”; for EGHLIHEYTQTRFVLEVSVK it is “inactive”.
The entry for EGNYAYAVVSHAHFEV is “inactive”; for EGRRIAGNARDRDHDLQVGR it is “inactive”; for EGRRPKYIGNESRYNMYHPY it is “inactive”.
Regarding EHIEIRSSFEVSPHTPNPAS, the amyloid nucleation score result is “inactive”.
The entry for EHNYSTASITSTLSTPNRAI is “inactive”; for EHVKRVRIWNSVNLVIEYMA it is 0.635 ± 0.19; for EIFGSISG it is “inactive”.
As to EIICLSLLCS, the amyloid nucleation score is 2.18 ± 0.053.
The entry for EIIFSSLSIPLYMLEGI is “inactive”; for EILISNCEVDRRLYRGGN it is -0.618 ± 0.98.
The entry for EISLPLFFATLGYFFWIAMR is “inactive”.
Turning to EITLYEQGNNRSLVGPERKS, the amyloid nucleation score entry was “inactive”.
EKLCAHCSCPKVGVELFGCV: the amyloid nucleation score entry was “inactive”.
Take EKMDLPRAYGDIRTPKEVVR: the amyloid nucleation score turned out to be 0.788 ± 0.12.
The same measure for EKRPNPVSICLRWIKEKAT: “inactive”.
The entry for ELDMLRYEVMVCNHDDGLCE is “inactive”; for ELFKEVCEGEFRAS it is “inactive”.
The same measure for ELLFIDGWKST: “inactive”; for ELLLMCIDDVSMRFITPLEY: “inactive”.
Consider ELRLMGFRGALDACLSLHPI, for which the amyloid nucleation score entry is “inactive”.
Turning to ELSTMIKSSCPPLIDRWLFP, the amyloid nucleation score entry was “inactive”.
Consider EMRKAIRRL, for which the amyloid nucleation score result was “inactive”.
The same measure for EMRSFVGNSCI: -0.613 ± 1.5; for EMVITWCLRMLSQAMLGGYS: “inactive”.
For the substance EMYGWINMIQWNLLCVSEII, the amyloid nucleation score entry was “inactive”.
The same measure for EPKLDNV: “inactive”.
The entry for EQLFD is “inactive”; for EQTLGYNLIRAWLSKCCWMT it is “inactive”.
The entry for ERELGQRLSCTGNSTVWSYE is “inactive”.
Turning to ERFSFVLVNGVRYFRSNLRW, the amyloid nucleation score entry is “inactive”.
Turning to ERLFRFENEDLVIFIYCSIL, the amyloid nucleation score entry was “inactive”.
The entry for ERLGVL is “inactive”.
For ERMRLNARFSTHLE, the amyloid nucleation score result was “inactive”.
The same measure for ERRASLGYNHIL: “inactive”; for ESCGRSQHPKEAKELESGAG: “inactive”.
Take ESDGCNNQFRHWSHCRSKNP: the amyloid nucleation score result is “inactive”.
As to ESDITICS, the amyloid nucleation score entry is “inactive”.
The figure for ESFLFFMFIFASCTT is 0.536 ± 0.33; for ESSNNPFFDQAYIYIKFY it is -0.42 ± 0.9.
The figure for ESVNGTSFPVFIYHRTSFRL is 1.61 ± 0.069.
For the substance ESWKWYQYSVQWAWYEHPHS, the amyloid nucleation score entry was “inactive”.
The entry for ESWNRKVLRHVSVEWHWLV is “inactive”.
The same measure for ETDVHSYFVSLYSYPFAVEP: “inactive”.
ETFVGLEVNWNSCNCFIVQE gave an amyloid nucleation score of 1.87 ± 0.076.
The same measure for ETISFYLCLLYDVKLVNALM: -0.54 ± 0.68; for EVCQCRPTTVSLARVGRIVV: “inactive”; for EVEIRWPCLKVVFLFLVH: “inactive”.
The same measure for EVLYYRFLF: “inactive”.
EVPGHSGQYSGVDYGYVWLA: the amyloid nucleation score entry is “inactive”.
The same measure for EVRRRDLYLWKASETLLRLL: “inactive”; for EVWRVSDSYSVDEIFVLLNL: “inactive”.
The figure for EVYLETCRGILFCALDTIFG is -0.264 ± 1.
In the case of EYGLNFSLNGYLSH, the amyloid nucleation score worked out at 0.601 ± 0.32.
The same measure for EYSLTLPYFVGSALPPQNTC: “inactive”; for FAAARSYFKLFHIYCDDVTG: 1.96 ± 0.071; for FADYFASSIFWYRCASHLGW: “inactive”.
The entry for FAHVI is “inactive”.
FALSWSSNGAALLRLELTTL gave an amyloid nucleation score of 0.224 ± 0.44.
The entry for FASIVFRCVLFTLFHPAVFR is “inactive”; for FASYYHTVDRADFDDLDPAN it is “inactive”.
Turning to FAVQCWKAGVAKNYGMHFVC, the amyloid nucleation score result was “inactive”.
The entry for FCCINKLDGLGVWETYCSYS is “inactive”.
The same measure for FCEDSRMSYKFYVSCIFAHS: 0.636 ± 0.14.
As for FCFDEEDVLRTGCNGDSYPG, the amyloid nucleation score entry is “inactive”.
Substance FCGPFSYGRLTYGFWFRKRP yielded an amyloid nucleation score of 1.75 ± 0.11.
Take FCIECYL: the amyloid nucleation score entry was “inactive”.
The entry for FCKLQYTGQS is “inactive”; for FCRRSGSFVLDMTYWGMYRP it is 0.156 ± 0.32.
Turning to FCSLIKYSQNYYNPLAHTVL, the amyloid nucleation score result is “inactive”.
Regarding FCSRYWLYLCRALLNRVVMR, the amyloid nucleation score result is “inactive”.
The same measure for FCTGWSNGLVNHVDYKKGRN: “inactive”.
The figure for FCYEHSLWLCLSYKVTVMRM is 1.08 ± 0.15.
For FCYSDFIPLWIR, the amyloid nucleation score entry was “inactive”.
The entry for FDDLSARVPLTVTLWPSHTA is “inactive”; for FDEDRREV it is “inactive”; for FDGNFGWARRVNAGDSLFMF it is “inactive”.
The entry for FDGTVVSR is “inactive”; for FDGVGYATSIMEGNDSG it is “inactive”; for FDNFFYWSRKRD it is “inactive”.
The same measure for FDRKYW: “inactive”.
Consider FDRYYVSPLRVLHQVGCEIL, for which the amyloid nucleation score entry was “inactive”.
The same measure for FDSYRVYM: “inactive”.
The same measure for FDVVWL: “inactive”; for FDWIQDHSQCGIIFTCVKLG: “inactive”; for FEHPHGGVNS: “inactive”.
Take FEIYECQLAC: the amyloid nucleation score entry was “inactive”.
The same measure for FELPSVKGGCILPSQILP: -0.517 ± 0.73; for FESLHSCV: “inactive”; for FFARSHAVIINFFCTH: 2.72 ± 0.066.
The figure for FFCNLSSILRWGN is 0.572 ± 0.18; for FFDTTYLLNSGMNVVLDAYF it is 1.76 ± 0.097; for FFFFTLKTSVQADLHDMLSQ it is 0.792 ± 0.16.
Turning to FFFLNSWVFYVLMNNDIVCA, the amyloid nucleation score entry is “inactive”.
